Assay results reported in the supplement of paper PMC10567573.

B1: ZNF649 (parent)
chain: MTKAQESLTLEDVAVDFTWEEWQF

Variants of: B1
Assay: protein stability index of a GFP-peptide fusion (GPS, HEK-293T) (PSI 1-6); higher = more stable
Conditions: c terminus: a fixed tail appended
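Also: lentivirally expressed fusions sorted by FACS into six bins by GFP to DsRed ratio, PSI derived from sequencing read proportions per bin multiplied by bin number.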

Variant	protein stability index
MTKAQESLTLEDVAVDFTWEEWQG	4.45
MTKAQESLTLEDVAVDFTWEEWQC	3.99
MTKAQESLTLEDVAVDFTWEEWQV	3.77
MTKAQESLTLEDVAVDFTWEEWQP	3.9
MTKAQESLTLEDVAVDQTWEEWQF	4.51
MTKAQESLTLEDVAVDCTWEEWQF	4.1
MTKAQESLTLEDVAVDVTWEEWQF	4.05
MTKAQESLTLEDVAVDHTWEEWQF	3.94
MTKAQEALTLEDVAVDFTWEEWQF	2.82
MTKAQECLTLEDVAVDFTWEEWQF	2.9
MTKAQEHLTLEDVAVDFTWEEWQF	2.6
MTKAQEELTLEDVAVDFTWEEWQF	3.93
MTKAQEQLTLEDVAVDFTWEEWQF	3.68
MTKAQEPLTLEDVAVDFTWEEWQF	3.14
MTKAQERLTLEDVAVDFTWEEWQF	3.55
MTKAQESATLEDVAVDFTWEEWQF	4.22
MTKAQESWTLEDVAVDFTWEEWQF	2.23
MTKAQESSTLEDVAVDFTWEEWQF	4.47
MTKAQESCTLEDVAVDFTWEEWQF	3.42
MTKAQESLTLEDVAVDFTWPEWQF	2.76
MTKAQESLTLEDVAVDFTWQEWQF	2.32
MTKAQESLTLEDVAVDFTWWEWQF	2.28
MTKAQESLTLEDVAVDFTWEEWIF	1.97
MTKAQESLTLEDVAVDFTWEEWYF	2.38

Variant	protein stability index
MTKAQESLTLEDVAVDFTWEEWEF	3.46
MTKAQESLTLEDVAVDFTWEEWSF	3.06
MTKAQESLDLEDVAVDFTWEEWQF	3.71
MTKAQESLQLEDVAVDFTWEEWQF	3.58
MTKAQESLFLEDVAVDFTWEEWQF	3.35
MTKAQESLPLEDVAVDFTWEEWQF	4.17
MTKAQESLNLEDVAVDFTWEEWQF	4.28
MTKAQESLTLEDIAVDFTWEEWQF	3.47
MTKAQESLTLEDPAVDFTWEEWQF	4.15
MTKAQESLTLEDAAVDFTWEEWQF	3.98
MTKAQESLTLEDGAVDFTWEEWQF	3.64
MTKAQESLTLEDTAVDFTWEEWQF	4.11
MTKAQESLTLEDCAVDFTWEEWQF	3.37
MTKAQESLTLEDYAVDFTWEEWQF	3.17
MTKAQESLTLEDVAVDFTWECWQF	1.58
MTKAQESLTLEDVAVDFTWEPWQF	1.89
MTKAQESLTLEDVAVDFTWEYWQF	1.95
MTKAQESLTLEDVAVDFTWENWQF	1.54
MTKAQESLTLEDVAVDFTWEWWQF	2.72
MTKAQESLTLEDVAVDFTWEQWQF	3.08
MTKAQESLTLEDVAVDFTWEHWQF	1.53
MTKAQESLTLETVAVDFTWEEWQF	2.2
MTKAQESLTLEVVAVDFTWEEWQF	1.92
MTKAQESLTLELVAVDFTWEEWQF	3.49

Variant	protein stability index
MTKAQESLTLEYVAVDFTWEEWQF	4.33
MTKAQESLTLERVAVDFTWEEWQF	2.85
MTKAQESLTQEDVAVDFTWEEWQF	4.13
MTKAQESLTCEDVAVDFTWEEWQF	4.05
MTKAQESLTPEDVAVDFTWEEWQF	4.11
MTKAQESLTKEDVAVDFTWEEWQF	4.34
MTKAQESLTEEDVAVDFTWEEWQF	4.38
MTKAQESLTVEDVAVDFTWEEWQF	3.01
MTKAQESLTIEDVAVDFTWEEWQF	2.81
MTKAQESLTLEDVHVDFTWEEWQF	3.12
MTKAQESLTLEDVAVSFTWEEWQF	3.12
MTKAQESLTLEDVAVGFTWEEWQF	3.13
MTKAQESLTLEDVAVLFTWEEWQF	2.73
MTKAQESLTLEDVAVKFTWEEWQF	2.5
MTKAQESLTLEDVAVYFTWEEWQF	2.64
MTKAQESLTLEDVAVMFTWEEWQF	2.34
MTHAQESLTLEDVAVDFTWEEWQF	3.7
MTSAQESLTLEDVAVDFTWEEWQF	3.85
MTLAQESLTLEDVAVDFTWEEWQF	2.84
MTKAQHSLTLEDVAVDFTWEEWQF	2.2
MTKAQWSLTLEDVAVDFTWEEWQF	1.95
MTKAQMSLTLEDVAVDFTWEEWQF	1.92
MTKAQLSLTLEDVAVDFTWEEWQF	2.43
STKAQESLTLEDVAVDFTWEEWQF	3.91

Variant	protein stability index
HTKAQESLTLEDVAVDFTWEEWQF	3.72
LTKAQESLTLEDVAVDFTWEEWQF	2.94
NTKAQESLTLEDVAVDFTWEEWQF	4.67
ATKAQESLTLEDVAVDFTWEEWQF	3.33
MTKAQESLTLEDVAVDFNWEEWQF	3.47
MTKAQESLTLEDVAVDFFWEEWQF	1.79
MTKAQESLTLEDVAVDFAWEEWQF	3.87
MTKAQESLTLEDVAVDFIWEEWQF	2.41
MTKAQESLTLEDVAVDFYWEEWQF	1.36
MTKAQESLTLNDVAVDFTWEEWQF	3.28
MTKAQESLTLLDVAVDFTWEEWQF	1.56
MTKAQESLTLGDVAVDFTWEEWQF	2.98
MTKAQESLTLTDVAVDFTWEEWQF	2.86
MTKAQESLTLWDVAVDFTWEEWQF	2.13
MTKAQESLTLKDVAVDFTWEEWQF	2.62
MTKAQESLTLYDVAVDFTWEEWQF	1.28
MTKVQESLTLEDVAVDFTWEEWQF	2.52
MTKNQESLTLEDVAVDFTWEEWQF	3.04
MTKFQESLTLEDVAVDFTWEEWQF	2.51
MTKHQESLTLEDVAVDFTWEEWQF	3.48
MTKTQESLTLEDVAVDFTWEEWQF	3.11
MTKRQESLTLEDVAVDFTWEEWQF	2.97
